± gives the uncertainty stated by the source.

The data set is described as follows: amyloid nucleation score (Sup35N fusion, yeast selection) (log enrichment); library NNK3; higher = more nucleation; inactive = no reads after selection. Summed up:
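On medium lacking adenine and uracil, psi-negative yeast expressing peptides of 20 random codons fused to Sup35N were grown 7 days at 30°C after a 24-hour induction with 100 μM copper sulfate. Illumina sequencing of input and output plasmid inserts gave the reads, and sequences under 100 input reads were excluded. The nucleation score is the DiMSum log enrichment of output over input reads, centred on the mode score of non-aggregating sequences.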
Take GFTLHHLTACVIGTCVFFSP: the amyloid nucleation score was 1.93 ± 0.1. The result for GSLPFLSYLGRVKCGERRSS reads “inactive”.

As to VPRVSSTQDCNRLILRKVCL, the amyloid nucleation score result was “inactive”. The result for KLCYNNCVNLLII reads 0.716 ± 0.13.

Take RFWLDYEGRNAYWMGITHVW: the amyloid nucleation score entry was “inactive”. The same measure for RRTPLWSPMVRNLSYALLAG: “inactive”.

VNWRVRWIYSILGKS: the amyloid nucleation score entry is “inactive”. For the substance NYVGSSPGVGSRYTCLKSNV, the amyloid nucleation score entry is “inactive”. Regarding YRLSLRH, the amyloid nucleation score result was “inactive”. The result for LCHYYLRSKLMAFDMLAFPS reads “inactive”; that for VNPIERWA, “inactive”; that for IYRVYYDSTLGMCPAWGFYK, “inactive”. As to GIYRLGVNHGMFSCLM, the amyloid nucleation score result was “inactive”.

Regarding VLDFRRPRNISRS, the amyloid nucleation score entry is “inactive”.

As for FIEKAC, the amyloid nucleation score entry is “inactive”.

AGKDSPGTDHGGGKNNVRV: the amyloid nucleation score entry was “inactive”.

For the substance PCLSMRSNLRGYTWWSVGGY, the amyloid nucleation score was found to be 1.11 ± 0.14.

As to VYNIDTRNISFMSASNRTLS, the amyloid nucleation score result is “inactive”.

LWRTGRALWAMNWKAYIQFK: the amyloid nucleation score result was “inactive”. The result for SLMYKWKEGSQDGYCWAW reads 0.824 ± 0.28; that for KFSTTFVTCSIVLVRILLDL, “inactive”. The result for FILIYDRYRGF reads 1.26 ± 0.095.

Consider GTWNVKAGGPYFKVVT, for which the amyloid nucleation score entry was “inactive”.

Take GRLSVFLGYIHGRCYGALGR: the amyloid nucleation score is -0.635 ± 1.9. On to MVYPQLYTTKVVNVVPGLGS, for which the amyloid nucleation score result is “inactive”. As for FFVLYRLRELPPAQLMMKAA, the amyloid nucleation score result is “inactive”.

YIIFLTMAHF: the amyloid nucleation score came out at 0.656 ± 0.29.

Consider KWLYTDYRVISSHILKHLSA, for which the amyloid nucleation score entry was “inactive”. The same measure for TAYFFSVARVMVDLTTALLA: 0.161 ± 0.33. For RQLVNCQGFVLYTREMDFEA, the amyloid nucleation score entry is “inactive”. The result for SSFTKLPFL reads “inactive”; that for RNCNETLNIVETGNSISANV, “inactive”; that for GVLMNHIELL, “inactive”. The same measure for RASLEYVGKCWWDGPYIEGV: “inactive”. Take RCVQCEAYFCLFDKPDVDDT: the amyloid nucleation score was found to be 3.05 ± 0.053. The result for TQAWSTL reads “inactive”. On to KCTANL, for which the amyloid nucleation score entry was “inactive”. Take AKTSYQRN: the amyloid nucleation score entry is “inactive”.

In the case of MTTVKTDCFSQSRYYRHWET, the amyloid nucleation score entry is “inactive”.

As to VLANGKTSELRELKVHLLAG, the amyloid nucleation score is -0.274 ± 1.1. AILLWNCLHSSVSLLKKAYS yielded an amyloid nucleation score of -0.518 ± 1.4. For the substance YWGIDHRIAGYIC, the amyloid nucleation score result was “inactive”.

In turn, KQLLGGPTVSFNVVYSVALK gave an amyloid nucleation score of 1.98 ± 0.088. With KGVDQGISECFLAVWFGRMN, the amyloid nucleation score entry is “inactive”. The same measure for VWTGWSKRGSSVA: “inactive”.

SRGEKNSNFTWTNDFDFFRV: the amyloid nucleation score result is “inactive”. The result for NSVVF reads “inactive”. The result for QDYTWVFEVSWAPKGGNLNV reads “inactive”. RSNICQFLKDFYKRCRKLF: the amyloid nucleation score result was “inactive”. As for SYPERMLWSSVMADFKMRRP, the amyloid nucleation score result is “inactive”. The same measure for MKAYILMVDRLVVELVPHVA: -0.107 ± 0.35. For EMNSTFW, the amyloid nucleation score result is “inactive”.

In turn, VSYRCSTICTNLVITVCLCD had an amyloid nucleation score of 0.25 ± 0.34. The same measure for VLEYHTQPWGLAQRQTWLSG: “inactive”. On to FGCQTGWRFRFINSNNR, for which the amyloid nucleation score came out at 1.25 ± 0.14.

FSGGCSVYSMQLFLS gave an amyloid nucleation score of 1.43 ± 0.11. The same measure for VLVNGSGRNWEYYISRRFFF: “inactive”. Regarding RWSLYLGRSRMKLRATVHSF, the amyloid nucleation score entry was “inactive”. KQKWIPYSLCFFTPVR: the amyloid nucleation score result is “inactive”. On to RELRF, for which the amyloid nucleation score entry was “inactive”. The same measure for GSDSVAGHYFSFVYKVIAEF: 0.292 ± 0.3.

In the case of VRLYYSKPRLKRGDSCVEKY, the amyloid nucleation score result is “inactive”. The same measure for QYWNFFRFVRGDD: 0.601 ± 0.14; for SRNLPVLTYLFLVKKWEWYP: “inactive”; for QQPTYKYDDDKNFDSYWLAN: “inactive”.

In the case of MTVSVITAMGFTIGFFADNQ, the amyloid nucleation score stood at 0.494 ± 0.26. The same measure for REYSEA: “inactive”; for LTFIMLCIS: 1.24 ± 0.12; for ASVRTYVDTNHYNLAEILRL: “inactive”. Consider CKRCIPMRYYQL, for which the amyloid nucleation score result was “inactive”. DMKLPVCSKMPLFMLVIKFK: the amyloid nucleation score entry was “inactive”. The result for KYCGVTNLA reads “inactive”; that for FGVYKLSWNP, 0.044 ± 0.41; that for SLVIAIHRAFLFMAGRSRVG, “inactive”.

VWNMSASIKLQRMSAF: the amyloid nucleation score result was “inactive”. Regarding DSQCLVWYIRFAYNERSHRK, the amyloid nucleation score entry is “inactive”.

Take HMQTGDDRLMQAAYMHLEHI: the amyloid nucleation score entry is “inactive”. The result for LFQKKFILQVYNCLFSYYFN reads 1.18 ± 0.096; that for TFRTTGM, “inactive”.

In the case of LFCFSVN, the amyloid nucleation score result was “inactive”. For the substance DISSILVNTWLFDWKLNP, the amyloid nucleation score result is “inactive”. The result for LQSFPYQYIITR reads “inactive”. The same measure for TGYLQLYRTADDRGLEYCIM: “inactive”; for NLLPRCKLIDSWWSSHRLWV: -0.809 ± 1.1.

On to AKPIRSSGMFVCTAVYEYVF, for which the amyloid nucleation score result is “inactive”. As to YCVFGRNCDNKAVVLIGGNP, the amyloid nucleation score entry is “inactive”.

With TLTRVRTRCTKWRFICNCPM, the amyloid nucleation score came out at 0.254 ± 0.34. On to YSIIVVL, for which the amyloid nucleation score came to 1.39 ± 0.087. Turning to MKGCWFWKVIENFHIKSHCR, the amyloid nucleation score result was “inactive”.

DFDAFRFIHVVSWFGFTIYP: the amyloid nucleation score entry was “inactive”.

As to VHELIDHKMKMIGLVFGLSI, the amyloid nucleation score result was “inactive”. As for VLLFLTFMYSLSFWSMLLRG, the amyloid nucleation score entry was “inactive”.

In the case of NDTWCVLFRTPKLLCMSVFT, the amyloid nucleation score entry was “inactive”. For the substance RAVHR, the amyloid nucleation score entry is “inactive”. The result for GAQSSTEIAQFYKNGMTSNQ reads “inactive”. The same measure for KLTNLI: “inactive”. For TRASRRKSHSTSMDLPIRRH, the amyloid nucleation score result is “inactive”. The result for KLNLG reads “inactive”. Consider IYRLKDRLDDLVSHVDICVV, for which the amyloid nucleation score result was “inactive”. As to TCIGPGRFFFMMFYV, the amyloid nucleation score entry was “inactive”. The result for SSTHIWGVQALGS reads “inactive”; that for LMGTQVVFDDTDPYTEKGLL, “inactive”; that for VMRALL, “inactive”. Take GKSIKGYGHSVFTVVLTVGY: the amyloid nucleation score entry was “inactive”. Turning to SPLLNPGPSWF, the amyloid nucleation score entry was “inactive”. The result for WGTFIKSFQRLVKMVLLSMP reads “inactive”; that for FGIWFGRNLGVGMDTKMSRF, “inactive”.

Regarding NVWLNGWIVGMGYNNWHILW, the amyloid nucleation score came to 1.93 ± 0.072. The result for VYTGHVGLFV reads “inactive”; that for NLFYDFFDYMVSRARGGRVC, “inactive”. The same measure for RVSYKICKERKF: “inactive”. In the case of PGKGKELSRASGSRATV, the amyloid nucleation score result is “inactive”. The result for RRSRFTFSYIIRSLCASRTF reads “inactive”; that for GNLSFTPGITRKKSVLEYRH, “inactive”; that for LVLRGKRSDV, “inactive”. The result for LPYLKQ reads “inactive”; that for ACKLIEFSSQQVFVGFGVHA, “inactive”. Regarding YDMFMVSWLKEIDWMQDDPR, the amyloid nucleation score result is “inactive”.

For FLTDRPYRGCG, the amyloid nucleation score entry is “inactive”.

In the case of HLVKEGDNTMVGGYPFQWMT, the amyloid nucleation score result is “inactive”.

Regarding SVCMVFYPVEREKEDQKSVE, the amyloid nucleation score result was “inactive”. As for EHWCFINFLELICYQYLFLP, the amyloid nucleation score entry is “inactive”. On to VNLITREHLKKGSMNNFIAN, for which the amyloid nucleation score entry is “inactive”. The same measure for VGGYI: “inactive”. The same measure for NKSLWGC: “inactive”; for NLPRKGSGWDIHDRRHPWRS: “inactive”; for YGMYC: “inactive”. The result for TENISFECYMEIY reads “inactive”; that for VFMIVRQEGSSDFFFDFSSV, 1.42 ± 0.11; that for LDVQATIAFCVVVYASLYKR, “inactive”. Regarding SFNHCM, the amyloid nucleation score result was “inactive”. The same measure for EFVDSLLKRGGLFRVFGASS: “inactive”. The result for VFFAVF reads “inactive”.

The values above are taken from the supplement of paper PMC12042874.
